According to PMC8631942 (2021):

B1: His10-BTLA^ICD BTLA^FFYF, pre-phosphorylated (domain or fragment)
chain: DTAGREINLVDAHLKSEQTEASTRQNSQVLLSETGIFDNDPDLCFRMQEGSEVFSNPCLEENKPGIVYASLNHSVIGPNSRLARNVKEAPTEFASICVRS
modifications: pre-phosphorylated with Fyn; lone tyrosine (Y257) in the ITIM

Columns and labels:
[1] = target: B1; experiment: SPR
SNAP-SHP2-cSH2 = experiment: SPR

Row | Kd [1] | Kd (SNAP-SHP2-cSH2) | Binder
1 | 1800 nM |  | SNAP-SHP1-cSH2 (domain or fragment) WYHGHMSGGQAETLLQAKGEPWTFLVRESLSQPGDFVLSVLSDQPKAGPGSPLRVTHIKVMCEGGRYTVGGLETFDSLTDLVEHFKKTGIEEASGAFVYLRQPY
2 |  | 1100 nM | His10-BTLA^ICD BTLA^FFFY, pre-phosphorylated (domain or fragment, pre-phosphorylated with Fyn; lone tyrosine (Y282) in the ITSM) DTAGREINLVDAHLKSEQTEASTRQNSQVLLSETGIFDNDPDLCFRMQEGSEVFSNPCLEENKPGIVFASLNHSVIGPNSRLARNVKEAPTEYASICVRS
3 |  | 1100 nM | B1
